Patent US20250049852A1 (SHANGHAI IASO BIOTECHNOLOGY, published 2025)

What was measured:
Experiment in all cases: ELISA, coated antigen, detection HRP anti-human IgG
[1] = target: T1, Biotinylated Recombinant human BAFFR Protein (human, UniProt Q96RJ3 7-71, limits assumed, biotinylated)
T1 construct: The label says that it carries a his tag; also called BAFFR-his-Bio
T1 sequence (looked up): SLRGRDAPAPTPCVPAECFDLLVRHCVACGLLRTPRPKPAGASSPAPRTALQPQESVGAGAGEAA

Streptavidin = target: T2, Streptavidin (UniProt P22629 37-163, limits assumed)
T2 construct: also called SA

[2] = target: T3, Biotinylated Human IL-10 Protein (human, UniProt P22301 19-178, biotinylated)
T3 construct: also called IL10-Bio

Measured: binding result

T3 sequence (P22301 19-178 limits assumed): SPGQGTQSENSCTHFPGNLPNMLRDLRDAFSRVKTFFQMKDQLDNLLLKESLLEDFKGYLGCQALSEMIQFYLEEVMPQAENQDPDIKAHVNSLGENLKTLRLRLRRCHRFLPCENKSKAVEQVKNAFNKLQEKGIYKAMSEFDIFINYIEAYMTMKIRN
T2 sequence (P22629 37-163 limits assumed): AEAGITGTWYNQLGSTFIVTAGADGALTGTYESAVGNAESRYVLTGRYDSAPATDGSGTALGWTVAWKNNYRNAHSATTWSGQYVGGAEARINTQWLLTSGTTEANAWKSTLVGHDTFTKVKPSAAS

B1: Positive Benchmark1 Ab (GC5B596) (antibody)
scFv: GSQVQLVQSGAEVKKPGASVKVSCKASGYSFTGYTMNWVRQAPGQGLEWMGLINPYNSDTNYAQKLQGRVTMTTDTSTSTAYMELRSLRSDDTAVYYCARVALRVALDYWGQGTLVTVSSGGGGSGGGGSGGGGSDIQMTQSPSSLSASVGDRVTITCKASQNVATHVGWYQQKPGKAPKRLIYSASYRYSGVPSRFSGSGSGTEFTLTISNLQPEDFATYYCQQYNRYPYTFGQGTKLEIKSR
notes: […] variable region from GC5B596 of CN 109715667 A. As positive control antibody it was detected with anti-human IgG, so it carried a human constant part; also called control antibody benchmark 1
no binding: all assays above
